In publication PMC5269746 one finds binding (N/P ratio for complete retardation) data, which are given here for one substance.

Data set [1] relates to HNH nanocarrier (H5WYG endosome release motif, DNA condensing motif, NLS) (synthetic construct). Briefly: EMSA (agarose gel retardation). Conditions: not given in the material (gel retardation methods text absent); ethidium bromide staining.
Data set [2] has as its system GNH nanocarrier (GP41 endosome release motif, DNA condensing motif, NLS) (synthetic construct). Briefly: EMSA (agarose gel retardation). Conditions: not given in the material (gel retardation methods text absent); ethidium bromide staining. On the technique in general: In EMSA bound probe runs differently from free probe, usually more slowly.

For the substance pGL3 plasmid, the binding (N/P ratio for complete retardation) in data set [1] and in data set [2] was 1 throughout.
